Reference: paper PMC7261163 (Nucleic Acids Research, 2020)

Legend:
[1] = molecular target: T1, Mom (Escherichia phage Mu, UniProt P06018); assay: microscale thermophoresis, fluorescently labelled Mom; format: binding
T1 sequence (P06018 12-241): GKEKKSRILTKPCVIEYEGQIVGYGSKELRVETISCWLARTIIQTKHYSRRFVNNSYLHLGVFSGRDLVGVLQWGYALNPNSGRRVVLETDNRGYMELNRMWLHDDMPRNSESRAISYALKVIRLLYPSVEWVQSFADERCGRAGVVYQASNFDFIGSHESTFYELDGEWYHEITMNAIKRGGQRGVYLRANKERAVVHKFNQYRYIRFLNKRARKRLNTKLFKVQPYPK

[2] = molecular target: Mom (bacteriophage Mu), untagged, purified (bacteriophage Mu) (UniProt P06018); assay: SEC
[3] = molecular target: Mom (bacteriophage Mu), untagged, purified (bacteriophage Mu) (UniProt P06018); assay: cross-linking

| Molecule | Kd [1] [µM] | stoichiometry N [2] | stoichiometry N [3] |
| --- | --- | --- | --- |
| CC(=O)SCCNC(=O)CCNC(=O)[C@H](O)C(C)(C)COP(=O)(O)OP(=O)(O)OC[C@H]1O[C@@H](n2cnc3c(N)ncnc32)[C@H](O)[C@@H]1OP(=O)(O)O [acetyl CoA] | ~49 |  |  |
| Mom (bacteriophage Mu), untagged, purified (from UniProt P06018 2-241) (enzyme) |  | 2 | 2 |
